Test results published in article PMC4448153.

The sequences below were run against T1, RamB-His (Corynebacterium glutamicum ATCC 13032?) (UniProt Q8NTD8) (assay: EMSA). Conditions: EMSA: 100 mM Tris/HCl pH 7.5, 20% glycerol, 100 mM KCl, 20 mM MgCl2, 1 mM EDTA, 30 min room temperature, DNA 5-61 nM; pull-down bead equilibration: 20 mM ….
T1 sequence: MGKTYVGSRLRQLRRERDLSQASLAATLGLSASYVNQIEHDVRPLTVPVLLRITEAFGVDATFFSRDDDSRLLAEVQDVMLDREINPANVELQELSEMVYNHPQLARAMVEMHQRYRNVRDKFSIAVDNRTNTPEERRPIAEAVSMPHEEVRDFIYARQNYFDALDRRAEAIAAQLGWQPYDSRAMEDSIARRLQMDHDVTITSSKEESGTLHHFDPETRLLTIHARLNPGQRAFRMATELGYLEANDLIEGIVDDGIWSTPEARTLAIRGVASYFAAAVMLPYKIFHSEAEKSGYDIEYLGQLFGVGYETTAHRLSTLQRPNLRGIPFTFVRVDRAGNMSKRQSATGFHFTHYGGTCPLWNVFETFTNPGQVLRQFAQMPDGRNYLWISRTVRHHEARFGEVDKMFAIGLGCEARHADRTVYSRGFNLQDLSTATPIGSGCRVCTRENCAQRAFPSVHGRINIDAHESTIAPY

**Q.** Which binding does the source give for “CCCGATGTGGGTAGTGGCAGAATTTGCCGAACGATAGCCCAGAGTTCATAAGTTGTTAACCAAATTAGCCTGAGTTAGTCATTTCAAGGTCTTAGGTTTTTAAGTCGTGAGCAATCCGGAGGGAAACCG (double strand) [RcFc]” here?
**A.** The binding was “binds”.

**Q.** “CGTCTAGATAAGACCTTGAAATGACTAACTCAGGCTAATTTGGTTAACAACTTATGAACTCTGGGCTATCGTTCGGCAAATTCTGCCACTACCCACATCTCACTCGTAACATTTGGAGACTCTAATCACAAAAATCGGCAATTTTCGACCCCTGCGGAACGAAAATCACCGATTCTTATTATTCTCACAGGTTTTTAGCAAGTCTCTTTTTTACTCGAGGGG (double strand) [RF4]” was tested. Which binding did it give?
**A.** The binding was “binds more weakly”.

**Q.** For “CGTCTAGATGCGGACTGCTGGGAAGATGCACCTTCAGCAACGAGCTGACCGGTAACACCGGAAAGGCCCTCAATGGATGCAGCATCGGAAGAACCGGTGGAAGCTGCAGATGAGGAGGTGGAATCAGACTCATTGGAGTCGGAGCAAGCTACAAGAGCGAAGGAGCCTGCAGTAACTGCGCCCACAAGGGCGATGGAGCGCTTAAGAGTGAGGTTCACGGGGAAGCCTTTCCGGTTTAAGTGAAGACATCGTCTGAGCAGATCCTGTAGGCGGGCCTCGAGGGG (double strand) [R3F0]”, which binding is on record?
**A.** Its binding is “no binding”.
